Laboratory results as given in paper PMC2633459 (Molecular Vision, 2009).
Values joined by “and” are separate entries in the source; they are usually repeats but may differ in a detail not shown here. Identical values can stand only once.

B1: doubly deamidated mutant βA3 Q85E/Q180E (natural protein, human, UniProt P05813 1-215, looked up)
chain: METQAEQQELETLPTTKMAQTNPTPGSLGPWKITIYDQENFQGKRMEFTSSCPNVSERSFDNVRSLKVESGAWIGYEHTSFCGQEFILERGEYPRWDAWSGSNAYHIERLMSFRPICSANHKESKMTIFEKENFIGRQWEISDDYPSLQAMGWFNNEVGSMKIQSGAWVCYQYPGYRGYEYILECDHHGGDYKHWREWGSHAQTSQIQSIRRIQQ
notes: human βA3-crystallin with Q85E and Q180E (mimic of deamidation), recombinant; Homo-dimer by SEC-MALS at 37 °C; precipitates at 55 °C when alone; also called DM βA3; βA3 DM; source: E. coli, purified (successive ion-exchange chromatography)
B2: wild type human βB1-crystallin (natural protein, UniProt P53674 1-252, looked up)
chain: MSQAAKASASATVAVNPGPDTKGKGAPPAGTSPSPGTTLAPTTVPITSAKAAELPPGNYRLVVFELENFQGRRAEFSGECSNLADRGFDRVRSIIVSAGPWVAFEQSNFRGEMFILEKGEYPRWNTWSSSYRSDRLMSFRPIKMDAQEHKISLFEGANFKGNTIEIQGDDAPSLWVYGFSDRVGSVKVSSGTWVGYQYPGYRGYQYLLEPGDFRHWNEWGAFQPQMQSLRRLRDKQWHLEGSFPVLATEPPK
notes: human βB1-crystallin, wild type, recombinant; Mixture of monomers and dimers at the concentrations of the 1:1 experiments; dimer at the higher concentration of the 5:1 experiment; source: E. coli, purified (successive ion-exchange chromatography)

Assays:
[1] = target: the molecule itself; assay: SEC-MALS; 5:1 molar ratio of βB1 to βA3 (to favour the βB1 dimer), injected immediately (0 min) or after 30 min at 37 °C; same buffer
[2] = target: B2; assay: SEC-MALS; 1:1 molar ratio of βA3 (WT or DM) with βB1 or βB2, final 0.4–0.5 mg/ml, incubated 90 min at 55 °C; filtered before injection; same buffer; settings: both partners purified
[3] = target: B1; assay: native gel or EMSA; blue-native PAGE, 4%–12% Bis-Tris gel, pH 7.0, 200 V, 4 °C; mixtures incubated at 37 °C for 60 min before the gel; settings: both partners purified
[4] = target: the molecule itself; assay: SEC-MALS; each crystallin alone, incubated 90 min at 37 °C; Superose 12 10/300 GL; pH 6.8, 29 mM Na2HPO4, 29 mM NaH2PO4, 100 mM KCl, 1 mM EDTA, 1 mM DTT

binding result [2] | binding result [3] | Binder | stoichiometry N [1] | stoichiometry N [4]
binds |  | wild type human βA3-crystallin (natural protein, UniProt P05813 1-215, looked up, human βA3-crystallin, wild type, recombinant; no tag is mentioned; also called WT βA3; βA3 WT; source: E. coli, purified (successive ion-exchange chromatography)) METQAEQQELETLPTTKMAQTNPTPGSLGPWKITIYDQENFQGKRMEFTSSCPNVSERSFDNVRSLKVESGAWIGYEHTSFCGQQFILERGEYPRWDAWSGSNAYHIERLMSFRPICSANHKESKMTIFEKENFIGRQWEISDDYPSLQAMGWFNNEVGSMKIQSGAWVCYQYPGYRGYQYILECDHHGGDYKHWREWGSHAQTSQIQSIRRIQQ | 2 | 
 | binds | wild type human βB2-crystallin (natural protein, UniProt P43320 1-205, looked up, human βB2-crystallin, wild type, recombinant; source: E. coli, purified (successive ion-exchange chromatography)) MASDHQTQAGKPQSLNPKIIIFEQENFQGHSHELNGPCPNLKETGVEKAGSVLVQAGPWVGYEQANCKGEQFVFEKGEYPRWDSWTSSRRTDSLSSLRPIKVDSQEHKIILYENPNFTGKKMEIIDDDVPSFHAHGYQEKVSSVRVQSGTWVGYQYPGYRGLQYLLEKGDYKDSSDFGAPHPQVQSVRRIRDMQWHQRGAFHPSN |  | 2 and 4
 |  | B1 |  | 2
 |  | B2 |  | 2
